Laboratory results as given in patent publication US20120114665A1 (Regeneron, published 2012).
Where a chain is given by its changes, count along the chain named. Like-named read-outs stand apart in the source and are kept apart here. Blank lines part the entries; values can stand above or below the binder they belong to.

How the values were obtained:
[1] = biological target: T1, human RANKL (receptor activator of NF-κB ligand) (human, UniProt O14788 140-317, limits assumed); experiment: cell-based or functional assay
T1 sequence: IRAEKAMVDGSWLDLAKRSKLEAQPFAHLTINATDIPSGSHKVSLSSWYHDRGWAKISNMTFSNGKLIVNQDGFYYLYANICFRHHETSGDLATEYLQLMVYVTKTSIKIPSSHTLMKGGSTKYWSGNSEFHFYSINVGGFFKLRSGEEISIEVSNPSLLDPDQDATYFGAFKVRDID

[2] = biological target: T2, human trRANKL-his (R&D) (human, UniProt O14788 136-317, limits assumed); experiment: SPR, trRANKL-his captured on anti-his, antibody 12.5-50 nM injected, 25°C
T2 construct: Bought (R&D); also called captured RANKL; not shown: his tag
T2 sequence: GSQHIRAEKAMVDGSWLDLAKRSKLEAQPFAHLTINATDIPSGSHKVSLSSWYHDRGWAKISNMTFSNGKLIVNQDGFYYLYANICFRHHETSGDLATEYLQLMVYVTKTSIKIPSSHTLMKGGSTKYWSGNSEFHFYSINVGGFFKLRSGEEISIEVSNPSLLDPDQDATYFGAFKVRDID
Description: (§1) Briefly, human trRANKL-his (R&D) was first captured over an anti-his surface. […] The antigen and antibody binding and dissociation were monitored for 1 hr. KD is expressed in pM, T_{1/2} in hrs.

[3] = biological target: T2, human trRANKL-his (R&D); experiment: SPR, trRANKL-his captured on anti-his, antibody 12.5-50 nM injected, 37°C
Description: as §1

[4] = biological target: T3, penta-his-tagged hRANKL (human); experiment: competition ELISA: 150 pM his-hRANKL pre-mixed with antibody, free RANKL detected on hRANK-hFc plate
T3 construct: also called his-hRANKL; not shown: penta-his tag
T3 chain: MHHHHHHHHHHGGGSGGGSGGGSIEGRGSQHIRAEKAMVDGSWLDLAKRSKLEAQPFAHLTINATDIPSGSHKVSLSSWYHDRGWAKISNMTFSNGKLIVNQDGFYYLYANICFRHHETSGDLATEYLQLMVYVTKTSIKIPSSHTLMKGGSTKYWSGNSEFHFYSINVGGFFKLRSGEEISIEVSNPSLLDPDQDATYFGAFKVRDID
Procedure: (§2) Briefly, hRANK-hFc protein was coated on a 96-well plate in PBS buffer overnight at 4° C. at 2 μg/ml, and nonspecific binding was blocked with BSA, to form a hRANK-hFc surface.

[5] = biological target: T4, penta-his-tagged monkey (Macaca fascicularis) RANKL (Macaca fascicularis, UniProt O14788 125-317 (human entry)); experiment: competition ELISA: 150 pM his-mfRANKL pre-mixed with antibody, free RANKL detected on hRANK-hFc plate
T4 construct: also called his-mfRANKL; mfRANKL; not shown: penta-his tag
T4 chain: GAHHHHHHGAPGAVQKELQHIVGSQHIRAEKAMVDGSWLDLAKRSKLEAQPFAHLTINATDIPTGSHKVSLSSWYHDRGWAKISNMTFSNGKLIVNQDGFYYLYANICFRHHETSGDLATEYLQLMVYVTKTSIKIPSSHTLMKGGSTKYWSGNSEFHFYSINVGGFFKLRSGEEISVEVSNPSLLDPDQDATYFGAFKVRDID
Procedure: as §2

[6] = biological target: T1, human RANKL (receptor activator of …); experiment: cell-based or functional assay; remark: listed apart in the source
[7] = biological target: T1, human RANKL (receptor activator of …); experiment: SPR (BIACORE), purified antibody, 25°C
[8] = biological target: T1, human RANKL (receptor activator of …); experiment: SPR (BIACORE), purified antibody, 37°C
[9] = biological target: T3, penta-his-tagged hRANKL; experiment: competition ELISA: 150 pM his-hRANKL pre-mixed with antibody, free RANKL detected on hRANK-hFc plate
Procedure: as §2

[10] = biological target: T4, penta-his-tagged monkey (Macaca …); experiment: competition ELISA: 150 pM his-mfRANKL pre-mixed with antibody, free RANKL detected on hRANK-hFc plate
Procedure: as §2

[11] = biological target: T1, human RANKL (receptor activator of …); experiment: SPR (BIACORE 2000), antibody captured on anti-hFc, hRANKL injected
Procedure: Equilibrium dissociation constants (KD values) for antigen binding to the selected antibodies generated by hybridoma cell lines described above were determined by surface kinetics in a real-time biosensor surface plasmon resonance assay (BIACORE™ 2000). Each selected antibody was captured on a goat anti-mouse IgG polyclonal antibody surface created through direct chemical coupling to a BIACORE™ chip to form a captured antibody surface.
Each selected antibody was captured on a goat anti-hFc polyclonal antibody (Jackson Immuno Research Lab) surface created through direct chemical coupling to a BIACORE™ chip to form a captured antibody surface (Table 2).

IC50, hRANKL-inducible luciferase activity in HK293/RANK/NFκB-luc-eGFP cells [1]: 15 pM
Kd [2]: 0.0254 nM
T1/2 [2]: 2 h
Kd [3]: 0.245 nM
T1/2 [3]: 12 min
IC50 [4]: 0.0569 nM
IC50 [5]: 1.8 nM
B1: H4H008P2 (antibody, V domains shown)
VH: EVQLLESGGGLLQPGGSLRLSCAASGFTFSGFGMSWVRQAPGRGLEWVSVISYDGRNKYYADSVKGRFTSSRDNSKNTLYLQMNSLRAEDTAVYYCAKSLSGTYWGYGMDVWGRGTLVTVSS
VL: EIVLTQSPATLSLSPGERATLSCRASQSIRSWLAWYQQKPGQAPRLLIYKASNRATGIPARFSGSGSGTDFTLTISSLEPEDFGVYYCQQYNSYLWTFGGGTKVEIKR

IC50, hRANKL-inducible luciferase activity in HK293/RANK/NFκB-luc-eGFP cells [6]: 214 pM
Kd [7]: 0.262 nM
Kd [8]: 0.0531 nM
IC50 [9]: 0.165 nM
IC50 [10]: 1.36 nM
B2: H4H002P (antibody, V domains shown)
VH: QVQLVESGGGVVQPGRSLRLSCAASGFTFTGYGMHWVRQAPDKGLEWVAVISYDGTNKYYVDSVKGRFTISRDNSQNTLYLQMNSLRAEDTAVYYCAKCLSGTYWGYGMDVWGQGTTVTVS
VL: DIQMTQSPSTLSASVGDRVTITCRASRSINSWLAWYQQKPGKAPKLLIYKASSLESGVPSRFSGSGSGTEFTLTISSLQPDDFASYYCQQYNNYSWTFGQGTKVEIK
notes: Purified antibody from clone 1F8

Kd [11]: 0.0158 nM
B3: 2H10 (antibody, V domains shown)
VH: QVQLVESGGGVVQPGRSLRLSCAASGFTFSGYGIHWVRQAPDKGLEWVAVISYDGTNKYYGDSVKGRFTISRDNTKNTLYLQMNSLRTEDTAVYYCAKSLSGTYWGYGMDVWGQGTTVTVSS
VL: B2 VL with D1A, R27Q, S28N, N30G, S31N, E55Q, S56N, S85T, Q90R, N93S
notes: From direct isolation of splenocytes; captured on anti-hFc; also called H4H009N

Kd [11]: 0.0331 nM
B4: 2H12 (antibody, V domains shown)
VH: QVQLVQSGGGVVQPGRSLRLSCAASGFTFSGYGMHWVRQAPGKGLDWVTVISYDGSNKHYADSVKGRFTISRDNSKNTLYLQMSSLGPEDTAVYYCAKSLSGTYWGYGMDVWGQGTTVTVSS
VL: B2 VL with D1A, R27Q, S28N, N30S, I75V, S85T, N93R
notes: From direct isolation of splenocytes; captured on anti-hFc; also called H4H010N

IC50, hRANKL-inducible luciferase activity in HK293/RANK/NFκB-luc-eGFP cells [6]: 452 pM
Kd [7]: 0.335 nM
Kd [8]: 0.0578 nM
IC50 [9]: 0.335 nM
IC50 [10]: 2.76 nM
B7: H4H007P (antibody, V domains shown)
VH: B2 VH with T30S, D42G, K43M, T56I, V61A, Q76K, Y80F, V93L
VL: B2 VL with R27Q, N30S, Q38L, S63G, S85T, Q90H, N93S
notes: Purified antibody from clone 2E12

The remaining lines, values behind:

B5: 2E11 (antibody, V domains shown)
VH: B3 VH with E6Q, S30G, I34M, T56N, G61V, T75S, T78M, T88A, S99C, V111G
VL: B2 VL with R27Q, N30S, S31N, S53N, E55Q, S85T
notes: From direct isolation of splenocytes; captured on anti-hFc; also called H4H006N
Kd [11]: 0.016 nM

B6: 1F8 (antibody, V domains shown)
VH: B3 VH with E6Q, S30T, I34M, G61V, T75S, K76Q, T88A, S99C
VL: B2 VL with D1A
notes: From direct isolation of splenocytes; captured on anti-hFc; also called H4H002N
Kd [11]: 0.00785 nM

B8: 2G10 (antibody, V domains shown)
VH: B3 VH with E6Q, Y32F, I34M, D42G, V50I, T56R, G61A, T75S, T88A
VL: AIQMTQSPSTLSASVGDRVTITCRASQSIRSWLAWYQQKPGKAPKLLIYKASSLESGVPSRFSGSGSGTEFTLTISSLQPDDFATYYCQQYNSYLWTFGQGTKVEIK
notes: From direct isolation of splenocytes; captured on anti-hFc; also called H4H008N
Kd [11]: 0.028 nM
